In publication PMC9908306:

Molecular target: human glyceraldehyde 3-phosphate dehydrogenase (GAPDH) (human) (UniProt P04406)
Experiment: cryo-EM structure; single particle analysis of GAPDH on EG-grid, 0.5 mg/ml; D2 symmetry applied

Sequence of human glyceraldehyde 3-phosphate dehydrogenase (GAPDH), P04406 1-335 (enzyme; other documents disagree on this pair) (P04406 whole entry): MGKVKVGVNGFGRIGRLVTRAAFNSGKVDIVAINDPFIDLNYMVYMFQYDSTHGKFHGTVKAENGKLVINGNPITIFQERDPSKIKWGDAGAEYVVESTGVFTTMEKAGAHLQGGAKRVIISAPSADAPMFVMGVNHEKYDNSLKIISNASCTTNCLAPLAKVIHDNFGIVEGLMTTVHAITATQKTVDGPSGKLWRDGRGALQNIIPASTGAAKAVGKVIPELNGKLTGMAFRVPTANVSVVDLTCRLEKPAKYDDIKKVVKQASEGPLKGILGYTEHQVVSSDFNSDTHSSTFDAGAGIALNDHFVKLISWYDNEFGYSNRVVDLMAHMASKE

Q: “human glyceraldehyde 3-phosphate dehydrogenase (GAPDH), P04406 1-335 (enzyme; other documents disagree on this pair)” was tested. Which stoichiometry N did it give?
A: 4
